Measurements as given in the supplement of paper PMC9732359.
± gives the uncertainty stated by the source.

Experiment: protein stability index of a GFP-peptide fusion (yeast GPS) (PSI 1-4); higher = more stable; sorted into four equal gates, so the index is relative within each strain
Outline: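 Tiled yeast protein peptides of 17 residues were each joined downstream of GFP, on plasmids that also express Cherry. The pooled library was maintained in yeast, and mid-log cultures in leucine-free medium were sorted into four equal gates on the GFP/Cherry ratio. Plasmids from every gate were amplified by PCR and sequenced on Illumina, with barcodes linking reads to strains. The protein stability index of a peptide is its gate-number-weighted read frequency summed over the gates.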

Row | Sequence | protein stability index (doa10∆) | protein stability index (pdr5∆) | protein stability index (san1∆) | protein stability index (ubr1∆)
1 | QSAIRPAGQATQKRTHV [RPL4A] | 2.83 ± 0.09 | 2.8 ± 0.091 | 2.72 ± 0.085 | 2.5 ± 0.074
2 | APEQQVQQFAQLPVGFK [UBP6] | 2.92 ± 0.08 | 2.99 ± 0.052 | 3.09 ± 0.059 | 2.99 ± 0.037
3 | DDYEDQDDDDYVDTATA [IRR1] | 3.14 ± 0.08 | 3.47 ± 0.071 | 2.93 ± 0.093 | 3.22 ± 0.049
4 | GSLKLIELLCGLGKSAV [NAS6] |  |  | 3.08 ± 0.098 | 
5 | QRGKWNLKYLDNSNVMT [RGR1] | 2.37 ± 0.093 | 2.49 ± 0.084 | 2.58 ± 0.077 | 1.95 ± 0.073
6 | ELRRFESSINTHPHAAD [SKI6] | 2.73 ± 0.081 | 3.08 ± 0.054 | 2.56 ± 0.064 | 2.87 ± 0.055
7 | KRPNNKTLEKLESTIAE [IRR1] | 3.62 ± 0.14 | 3.35 ± 0.1 | 3.01 ± 0.096 | 3.31 ± 0.14
8 | KKKRKKKNKSAIDGIFG [RMP1] | 2.47 ± 0.045 | 2.83 ± 0.045 | 2.81 ± 0.042 | 3.03 ± 0.038
9 | QETASPLSQDELISLRK [YIL149C/MLP2] | 2.42 ± 0.06 | 2.22 ± 0.074 | 1.89 ± 0.11 | 2.13 ± 0.061
10 | DEEIIQLHFSLLDEEAE [RPO21] | 2.86 ± 0.078 | 3.01 ± 0.09 | 2.89 ± 0.083 | 2.83 ± 0.23
11 | SRILKAQSRNVEIEKRI [YGR119C/NUP57] | 3.39 ± 0.07 | 3.15 ± 0.066 | 2.98 ± 0.067 | 2.67 ± 0.053
12 | KYRKRQLVTREAQIKDW [FAS2] | 2.81 ± 0.27 | 2.86 ± 0.15 | 2.93 ± 0.24 | 3.22 ± 0.11
13 | FIRLPHWPLNWYLILSI [RGR1] | 1.46 ± 0.077 | 1.4 ± 0.064 | 1.33 ± 0.23 | 1.37 ± 0.062
14 | RRTYNTLEDKFLLLAVN [ISW2] | 1.34 ± 0.084 | 1.67 ± 0.076 | 1.18 ± 0.19 | 1.28 ± 0.071
15 | LKERAKNISSQLDSKLM [YGR119C/NUP57] | 1.2 ± 0.2 | 1.46 ± 0.22 | 1.56 ± 0.26 | 1.28 ± 0.13
16 | LENATWTMRIEGRLLDN [SNF12] | 2.64 ± 0.099 | 2.89 ± 0.12 | 2.65 ± 0.1 | 2.92 ± 0.066
17 | VLKSHSNDFEEGSTIRY [YMR129W/POM152] | 2.44 ± 0.075 | 2.8 ± 0.099 | 2.93 ± 0.067 | 2.88 ± 0.068
18 | NYILNFKQSNSETFLQF [CDC53] | 2.57 ± 0.13 | 1.43 ± 0.1 | 1.77 ± 0.17 | 2.12 ± 0.11
19 | LKLDKIIHVLTTMFENT [RGR1] | 2.07 ± 0.049 | 2.43 ± 0.069 | 2.39 ± 0.075 | 2.73 ± 0.044
20 | DESNDIDMIADENGTNS [RPC37] | 2.44 ± 0.1 | 2.43 ± 0.07 | 2.88 ± 0.11 | 3.12 ± 0.1
21 | PKILIREHERVILKQIL [SWP82] | 1.84 ± 0.081 | 2.18 ± 0.092 | 3.18 ± 0.24 | 3.15 ± 0.12
22 | NSMDMVDGMAKVPIGLI [RGR1] | 3.4 ± 0.12 | 3.37 ± 0.072 | 2.99 ± 0.15 | 3.23 ± 0.073
23 | DAITVKDVKAWAGKRLW [COR1] | 3.01 ± 0.069 | 2.8 ± 0.067 | 2.87 ± 0.063 | 2.37 ± 0.044
24 | LADKLENYEGKQDKTLQ [YIL149C/MLP2] | 3.15 ± 0.18 | 3.22 ± 0.22 | 2.92 ± 0.15 | 3.17 ± 0.22
25 | DDSLNRLAQNDGLLKNV [RPS21A] | 2.77 ± 0.15 | 3.04 ± 0.12 | 3.16 ± 0.13 | 3.38 ± 0.18
26 | VDGEAVGDEFKGYVFKI [RPS6A] |  | 3.79 ± 0.18 |  | 
27 | YWQFNGVIALGQFVTLG [RMP1] | 3.23 ± 0.094 | 2.79 ± 0.086 | 2.11 ± 0.086 | 2.91 ± 0.055

Row | Sequence | protein stability index (doa10∆) | protein stability index (pdr5∆) | protein stability index (san1∆) | protein stability index (ubr1∆)
28 | NNESNKNNNGDEKNKNN [MED2] | 3.21 ± 0.074 | 3.39 ± 0.066 | 3.33 ± 0.038 | 3.31 ± 0.051
29 | RLKYALNGREVKAILMQ [RPS4A] | 1.74 ± 0.073 | 1.39 ± 0.062 | 1.62 ± 0.18 | 1.24 ± 0.05
30 | IRRYCDVVAHRQLAGAI [DIS3] | 1.91 ± 0.077 | 2.2 ± 0.065 | 1.99 ± 0.097 | 2.18 ± 0.1
31 | TKKTITPMGGFVHYGEI [RPL3] | 3.2 ± 0.074 | 3.1 ± 0.072 | 3.08 ± 0.093 | 3.01 ± 0.046
32 | ETGNFSWASEGISKKTR [RPS8A] | 3.15 ± 0.037 | 3.267 ± 0.028 | 3.206 ± 0.028 | 3.228 ± 0.025
33 | LATRRVLQEYRLTKQAF [RPO21] | 2.99 ± 0.082 | 3.1 ± 0.1 | 3.01 ± 0.065 | 3.17 ± 0.056
34 | GSGVDSSKLQLTKKYSF [RRP42] | 2.67 ± 0.12 | 2.8 ± 0.062 | 1.55 ± 0.12 | 2.83 ± 0.071
35 | AFGGSATTGGGLFGNKP [YGL172W/NUP49] | 3.26 ± 0.091 | 2.7 ± 0.26 |  | 3.16 ± 0.12
36 | KDERDTWIHSEIEELKS [SMC3] | 3.16 ± 0.18 | 3.02 ± 0.097 | 2.91 ± 0.25 | 3.19 ± 0.12
37 | NLSVTSPYNADFDGDEM [RPO21] | 2.83 ± 0.063 | 3.14 ± 0.059 | 2.96 ± 0.061 | 3.04 ± 0.042
38 | PAHTKYMLIEEAASSNK [ITC1] | 3.05 ± 0.12 | 2.93 ± 0.11 | 3.02 ± 0.1 | 3.01 ± 0.095
39 | NQIQRQQQQQFRHHVQI [SNF5] | 1.86 ± 0.04 | 2.08 ± 0.045 | 1.88 ± 0.085 | 1.91 ± 0.03
40 | KVSYAVKKPQKSKTSTG [SNM1] | 2.85 ± 0.1 | 3.15 ± 0.13 | 2.66 ± 0.12 | 3.24 ± 0.079
41 | KQFFQMTPLLVNCLELL [PCI8] | 1.4 ± 0.034 | 1.32 ± 0.034 | 1.26 ± 0.067 | 1.23 ± 0.025
42 | ADKNCAKLHRISPKIWC [PUP1] | 2.09 ± 0.055 | 2.1 ± 0.061 | 1.94 ± 0.059 | 2.14 ± 0.05
43 | HDKNIQKLLKQLDSDAN [ISW2] | 2.58 ± 0.049 | 2.52 ± 0.049 | 2.69 ± 0.053 | 2.93 ± 0.032
44 | FTFGLTVVQVYDNGQVF [RPP0] | 1.26 ± 0.09 | 1.3 ± 0.1 | 1.36 ± 0.28 | 1.39 ± 0.16
45 | KSAYANTEKDYKMVQEQ [SMC2] | 2.95 ± 0.053 | 3.02 ± 0.066 | 3.19 ± 0.04 | 3.21 ± 0.049
46 | VGKDTPFTIYDGEAVAK [PRE5] | 2.7 ± 0.075 | 3 ± 0.064 | 3.14 ± 0.088 | 3.15 ± 0.051
47 | FAKFIHHIHHFEKKELQ [IRR1] | 1.72 ± 0.048 | 2.74 ± 0.064 | 2.18 ± 0.12 | 2.13 ± 0.056
48 | IGIPVNKASLAQYEVLA [QCR2] | 2.52 ± 0.06 | 2.42 ± 0.049 | 1.92 ± 0.088 | 2.81 ± 0.043
49 | LYDLRASYAKIEIKISD [SNU114] | 2.34 ± 0.11 | 2.72 ± 0.084 | 2.22 ± 0.12 | 2.13 ± 0.17
50 | QSSAIGALQESVEAYLV [HHT1] | 2.04 ± 0.077 | 2.81 ± 0.087 | 2.39 ± 0.11 | 2.15 ± 0.079
51 | LKEQELVLYDAENDVIE [BRR2] | 3.24 ± 0.16 | 2.9 ± 0.16 | 2.99 ± 0.11 | 2.74 ± 0.11
52 | GSFNEMKRNCGQIITLF [RMP1] | 2.74 ± 0.064 | 2.91 ± 0.06 | 2.55 ± 0.062 | 2.87 ± 0.052
53 | ELNVKHVKQCQETCDKL [SMC2] | 3 ± 0.18 | 3.47 ± 0.2 | 3.09 ± 0.082 | 3.31 ± 0.051
